Data from the supplement of paper PMC7125110.
± gives the standard error. For some assays here: Fewer inactive variants are shown than the library holds.

B1: glmS ribozyme (parent)
chain: AUAAAAGCGCCAGAACUACAGAAAUGUAGUUGACGAGGAGGAGGUUUAUCGAAUUUUCGGCGGAUGCCUCCAAA

Tests used:
Conditions in all cases: with glucosamine-6-phosphate
[1] = variants of: B1; experiment: kcat; higher = faster cleavage; RNA array
In short: (§1)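 Glucosamine-6-phosphate, from 40 μM to 10 mM in HEPES/KCl/Mg(OAc)2 buffer, was flowed over sequenced MiSeq chips carrying barcoded ribozyme variants transcribed in situ by E. coli RNA polymerase. A hybridised Cy3 probe tracked the variants at 37 °C as tiles were imaged over ~14 h. kobs, kcat and KM were obtained by fitting normalised per-tile medians to exponential decays and then applying weighted Michaelis–Menten fits across concentrations.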

[2] = variants of: B1; experiment: KM; higher = weaker cofactor use; RNA array
In short: as §1

[3] = variants of: B1; experiment: self-cleavage kobs at 40 uM GlcN6P; higher = faster cleavage; RNA array
In short: as §1

[4] = variants of: B1; experiment: self-cleavage kobs at 160 uM GlcN6P; higher = faster cleavage; RNA array
In short: as §1

[5] = variants of: B1; experiment: self-cleavage kobs at 640 uM GlcN6P; higher = faster cleavage; RNA array
In short: as §1

[6] = variants of: B1; experiment: self-cleavage kobs at 2500 uM GlcN6P; higher = faster cleavage; RNA array
In short: as §1

[7] = variants of: B1; experiment: self-cleavage kobs at 10000 uM GlcN6P; higher = faster cleavage; RNA array
In short: as §1

| Variant | kcat [1] | KM [2] | self-cleavage kobs at 40 uM GlcN6P [3] | self-cleavage kobs at 160 uM GlcN6P [4] | self-cleavage kobs at 640 uM GlcN6P [5] | self-cleavage kobs at 2500 uM GlcN6P [6] | self-cleavage kobs at 10000 uM GlcN6P [7] |
| --- | --- | --- | --- | --- | --- | --- | --- |
| A14G G32A | 0.0158 ± 0.0015 s⁻¹ | 2500 ± 310 µM | 0.000266 ± 3.1e-05 s⁻¹ | 0.000935 ± 0.00013 s⁻¹ | 0.00305 ± 0.0005 s⁻¹ | 0.00726 ± 0.0011 s⁻¹ | 0.0136 ± 0.0018 s⁻¹ |
| A15U A52U | 0.000143 ± 1.2e-05 s⁻¹ | 1610 ± 370 µM | < 1e-05 s⁻¹ |  | 3.6e-05 ± 1e-05 s⁻¹ | 9.15e-05 ± 9.9e-06 s⁻¹ | 0.000119 ± 1.5e-05 s⁻¹ |
| A15C U54G | 0.00559 ± 0.0011 s⁻¹ | 2690 ± 780 µM | 0.000104 ± 1.6e-05 s⁻¹ | 0.000285 ± 5.1e-05 s⁻¹ | 0.000903 ± 0.00029 s⁻¹ | 0.00205 ± 0.00055 s⁻¹ | 0.00475 ± 0.0006 s⁻¹ |
| A39G U56A U57G G60U C67U C70U | 1.31e-05 ± 5.3e-06 s⁻¹ |  |  |  |  |  |  |
| C50A | 2.67e-05 ± 8.3e-07 s⁻¹ | 579 ± 130 µM |  |  | 1.25e-05 ± 3.1e-06 s⁻¹ | 2.31e-05 ± 2.1e-06 s⁻¹ | 2.49e-05 ± 1.3e-06 s⁻¹ |
| G13A U54G | 0.000682 ± 7.9e-05 s⁻¹ | 2540 ± 550 µM |  | 5.52e-05 ± 1.8e-05 s⁻¹ | 0.000123 ± 2.4e-05 s⁻¹ | 0.000363 ± 6.1e-05 s⁻¹ | 0.000537 ± 7.4e-05 s⁻¹ |
| A36C A52G | < 1e-05 s⁻¹ |  |  |  |  |  |  |
| U55C G59A | 0.000118 ± 2.1e-05 s⁻¹ | 4900 ± 1900 µM |  |  |  | 3.74e-05 ± 1.1e-05 s⁻¹ | 7.97e-05 ± 1.4e-05 s⁻¹ |
| A14G A15U C68G | 8.39e-05 ± 2.5e-05 s⁻¹ |  |  | 5.83e-05 ± 2.5e-05 s⁻¹ | 4.44e-05 ± 1.3e-05 s⁻¹ | 9.14e-05 ± 2.3e-05 s⁻¹ | 7.97e-05 ± 2.3e-05 s⁻¹ |
| G29C C58U | 5.79e-05 ± 8.3e-06 s⁻¹ |  | < 1e-05 s⁻¹ |  |  | 2.68e-05 ± 9.9e-06 s⁻¹ | 4.86e-05 ± 8e-06 s⁻¹ |
| A15C C68G | 2.69e-05 ± 6.5e-06 s⁻¹ |  |  |  |  | 3.22e-05 ± 9e-06 s⁻¹ |  |
| C58A G62A | < 1e-05 s⁻¹ |  | < 1e-05 s⁻¹ |  | < 1e-05 s⁻¹ |  |  |
| G13C U45G | 3.74e-05 ± 3.6e-06 s⁻¹ |  | < 1e-05 s⁻¹ |  |  |  | 3.22e-05 ± 1.2e-05 s⁻¹ |
| A15U G38A C67A C68U | 2.38e-05 ± 7.1e-06 s⁻¹ |  |  |  |  |  |  |
| A33U U49A C58U | < 1e-05 s⁻¹ |  | < 1e-05 s⁻¹ |  |  |  |  |
| A14C U31C | 0.00408 ± 0.0011 s⁻¹ | 2330 ± 860 µM | 8.42e-05 ± 1.1e-05 s⁻¹ | 0.000307 ± 4.3e-05 s⁻¹ | 0.000748 ± 9e-05 s⁻¹ | 0.00178 ± 0.00024 s⁻¹ | 0.00399 ± 0.00045 s⁻¹ |
| C11A G60A | < 1e-05 s⁻¹ |  |  |  |  |  |  |

| Variant | kcat [1] | KM [2] | self-cleavage kobs at 40 uM GlcN6P [3] | self-cleavage kobs at 160 uM GlcN6P [4] | self-cleavage kobs at 640 uM GlcN6P [5] | self-cleavage kobs at 2500 uM GlcN6P [6] | self-cleavage kobs at 10000 uM GlcN6P [7] |
| --- | --- | --- | --- | --- | --- | --- | --- |
| G35U G37A G60U | < 1e-05 s⁻¹ |  |  |  |  | < 1e-05 s⁻¹ |  |
| G9U A39U C61A | 0.000456 ± 2.3e-05 s⁻¹ | 503 ± 58 µM |  | 0.000118 ± 4.8e-05 s⁻¹ | 0.000243 ± 6.2e-05 s⁻¹ | 0.000376 ± 0.00013 s⁻¹ | 0.00046 ± 0.00017 s⁻¹ |
| U56G C67G | 0.000876 ± 9.7e-05 s⁻¹ | 1260 ± 220 µM | 3.84e-05 ± 5.8e-06 s⁻¹ | 9.74e-05 ± 8.1e-06 s⁻¹ | 0.00028 ± 2.1e-05 s⁻¹ | 0.000582 ± 5.1e-05 s⁻¹ | 0.00081 ± 7.6e-05 s⁻¹ |
| A14U G32U | 0.000874 ± 0.00012 s⁻¹ | 3050 ± 730 µM |  | 7.67e-05 ± 1.7e-05 s⁻¹ | 0.000142 ± 1.2e-05 s⁻¹ | 0.000422 ± 4e-05 s⁻¹ | 0.00066 ± 5.2e-05 s⁻¹ |
| C50U C68A | 3.06e-05 ± 9.8e-06 s⁻¹ |  |  |  | 4.9e-05 ± 1.9e-05 s⁻¹ | 3.28e-05 ± 1.5e-05 s⁻¹ |  |
| A12G U45A | 0.00242 ± 0.00064 s⁻¹ | 3500 ± 1300 µM | 4.21e-05 ± 1.5e-05 s⁻¹ | 0.000103 ± 1.6e-05 s⁻¹ | 0.00041 ± 5.3e-05 s⁻¹ | 0.000811 ± 0.00014 s⁻¹ | 0.00207 ± 0.00031 s⁻¹ |
| G32A U69G | 6.22e-05 ± 1.2e-05 s⁻¹ |  | 3.77e-05 ± 1.4e-05 s⁻¹ |  | 0.000117 ± 1.8e-05 s⁻¹ | 5.99e-05 ± 9.1e-06 s⁻¹ | 5.26e-05 ± 8.5e-06 s⁻¹ |
| A39C G66A | 0.004 ± 0.00092 s⁻¹ | 2860 ± 890 µM | 7.75e-05 ± 1.2e-05 s⁻¹ | 0.000194 ± 3.3e-05 s⁻¹ | 0.000666 ± 8.8e-05 s⁻¹ | 0.00181 ± 0.00027 s⁻¹ | 0.0033 ± 0.00049 s⁻¹ |
| G13C C16A | 0.000101 ± 1.7e-06 s⁻¹ | 712 ± 55 µM |  |  | 4.82e-05 ± 1.7e-05 s⁻¹ | 7.81e-05 ± 1.4e-05 s⁻¹ | 9.42e-05 ± 1.4e-05 s⁻¹ |
| U45A U46C | 0.0497 ± 0.021 s⁻¹ | 3030 ± 1500 µM | 0.000726 ± 0.00015 s⁻¹ | 0.00197 ± 0.00065 s⁻¹ |  | 0.0334 ± 0.017 s⁻¹ | 0.0365 ± 0.012 s⁻¹ |
| C16G | 0.0106 ± 0.0035 s⁻¹ | 2880 ± 1100 µM | 0.000174 ± 3.5e-06 s⁻¹ | 0.000423 ± 1.5e-05 s⁻¹ | 0.00182 ± 8.5e-05 s⁻¹ | 0.01 ± 0.0036 s⁻¹ | 0.0085 ± 0.0003 s⁻¹ |
| A12G A14G | 0.00308 ± 0.00041 s⁻¹ | 4770 ± 950 µM | 2.51e-05 ± 6.2e-06 s⁻¹ | 8.41e-05 ± 1.3e-05 s⁻¹ | 0.000405 ± 4.5e-05 s⁻¹ | 0.00121 ± 0.00015 s⁻¹ | 0.00203 ± 0.00016 s⁻¹ |
| C50U G63A | < 1e-05 s⁻¹ |  | < 1e-05 s⁻¹ | < 1e-05 s⁻¹ |  |  |  |
| C50U G63U | 1.75e-05 ± 7.2e-06 s⁻¹ |  | < 1e-05 s⁻¹ |  |  |  |  |
| U54G C58A | 0.000823 ± 5.9e-05 s⁻¹ | 2870 ± 360 µM |  |  | 0.00015 ± 2.9e-05 s⁻¹ | 0.000361 ± 0.00012 s⁻¹ | 0.000646 ± 0.00011 s⁻¹ |
| A12U C71G | 0.00158 ± 0.00072 s⁻¹ |  | 0.000203 ± 2.3e-05 s⁻¹ | 0.000316 ± 5.2e-05 s⁻¹ | 0.00125 ± 0.00015 s⁻¹ | 0.000947 ± 0.00021 s⁻¹ | 0.00305 ± 0.00048 s⁻¹ |
